Like-named read-outs stand apart in the source and are kept apart here.
What was measured:
[1] = biological target: the molecule itself; test: zonal velocity sedimentation in a glycerol gradient
[2] = biological target: the molecule itself; test: as above; remark: listed apart in the source

B1: full-length Mycobacterium smegmatis polynucleotide phosphorylase (PNPase) (enzyme, UniProt A0QVQ5 1-763, looked up)
chain: MSVVELEDGVYESTAVIDNGSFGTRTIRFETGRLAQQAAGSAVAYLDDETMLLSATTASKNPKDHFDFFPLTVDVEERMYAAGRIPGSFFRREGRPSTDAILTCRLIDRPLRPSFVDGLRNEIQVVVTVMSLDPKDLYDVLAINAASMSTQLAGLPFSGPVGGARIALIDGTWVAFPTVEQLERAVFDMVVAGRIVGDGDSADVAIMMVEAEATENVVELVAGGAQAPTEAVVAEGLEAAKPFIKALCAAQQELADRAAKPAGEYPVFPDYEADVYDAVASVATEALAEALTIAGKTERNDRTDEIKVEVLERLAEPYAGREKEIGAAFRSLTKKLVRQRILTDHFRIDGRGITDIRALSAEVAVIPRAHGSALFERGETQILGVTTLDMIKMAQQIDSLGPENTKRYMHHYNFPPYSTGETGRVGSPKRREIGHGALAERALVPVLPSIEEFPYAIRQVSEALGSNGSTSMGSVCASTLALLNAGVPLKAPVAGIAMGLVSDDVDVDGKVEKRYVALTDILGAEDAFGDMDFKVAGTKDFVTALQLDTKLDGIPSQVLAGALSQAKDARLTILDVMAEAIDRPDEMSPYAPRITTIKVPVDKIGEVIGPKGKMINSITEETGAQISIEDDGTVFVGAADGLSAQAAIDKINAIANPQLPKVGERFLGTVVKTTDFGAFVSLLPGRDGLVHISKLGKGKRIAKVEDVVKVGDKLRVEIADIDNRGKISLVLVAEESAESAESAGDKGAEKAEGAAADVTPAEA
stoichiometry N [1]: 3

B2: M. smegmatis PNPase-(1-591) lacking the KH and S1 domains (domain or fragment, Mycobacterium smegmatis, UniProt A0QVQ5 1-591, looked up)
chain: MSVVELEDGVYESTAVIDNGSFGTRTIRFETGRLAQQAAGSAVAYLDDETMLLSATTASKNPKDHFDFFPLTVDVEERMYAAGRIPGSFFRREGRPSTDAILTCRLIDRPLRPSFVDGLRNEIQVVVTVMSLDPKDLYDVLAINAASMSTQLAGLPFSGPVGGARIALIDGTWVAFPTVEQLERAVFDMVVAGRIVGDGDSADVAIMMVEAEATENVVELVAGGAQAPTEAVVAEGLEAAKPFIKALCAAQQELADRAAKPAGEYPVFPDYEADVYDAVASVATEALAEALTIAGKTERNDRTDEIKVEVLERLAEPYAGREKEIGAAFRSLTKKLVRQRILTDHFRIDGRGITDIRALSAEVAVIPRAHGSALFERGETQILGVTTLDMIKMAQQIDSLGPENTKRYMHHYNFPPYSTGETGRVGSPKRREIGHGALAERALVPVLPSIEEFPYAIRQVSEALGSNGSTSMGSVCASTLALLNAGVPLKAPVAGIAMGLVSDDVDVDGKVEKRYVALTDILGAEDAFGDMDFKVAGTKDFVTALQLDTKLDGIPSQVLAGALSQAKDARLTILDVMAEAIDRPDEMSPYA
binding result [2]: binds

B3: M. smegmatis PNPase-(1-656) lacking the S1 domain (domain or fragment, Mycobacterium smegmatis, UniProt A0QVQ5 1-656, looked up)
chain: MSVVELEDGVYESTAVIDNGSFGTRTIRFETGRLAQQAAGSAVAYLDDETMLLSATTASKNPKDHFDFFPLTVDVEERMYAAGRIPGSFFRREGRPSTDAILTCRLIDRPLRPSFVDGLRNEIQVVVTVMSLDPKDLYDVLAINAASMSTQLAGLPFSGPVGGARIALIDGTWVAFPTVEQLERAVFDMVVAGRIVGDGDSADVAIMMVEAEATENVVELVAGGAQAPTEAVVAEGLEAAKPFIKALCAAQQELADRAAKPAGEYPVFPDYEADVYDAVASVATEALAEALTIAGKTERNDRTDEIKVEVLERLAEPYAGREKEIGAAFRSLTKKLVRQRILTDHFRIDGRGITDIRALSAEVAVIPRAHGSALFERGETQILGVTTLDMIKMAQQIDSLGPENTKRYMHHYNFPPYSTGETGRVGSPKRREIGHGALAERALVPVLPSIEEFPYAIRQVSEALGSNGSTSMGSVCASTLALLNAGVPLKAPVAGIAMGLVSDDVDVDGKVEKRYVALTDILGAEDAFGDMDFKVAGTKDFVTALQLDTKLDGIPSQVLAGALSQAKDARLTILDVMAEAIDRPDEMSPYAPRITTIKVPVDKIGEVIGPKGKMINSITEETGAQISIEDDGTVFVGAADGLSAQAAIDKINAIAN
stoichiometry N [2]: 1 to 3

Reference: paper PMC3689434 (Biochemistry, 2013)
